# “Also recorded” adds a separate entry of the source.
# B1: R158A: tDGC diguanylate cyclase domain with I-site arginine 158 replaced by alanine (protein, listed as Thermotoga maritima)
# chain: MGSSHHHHHHSSGLVPRGSHMKELEYMAYHDPLTGLPNRRYFFELGNRYLDLAKREGKKVFVLFVDLAGFKAINDTYGHLSGDEVLKTVSKRILDRVARSDVVARYGGDEFTILLYDMKEEYLKSLLERILSTFREPVRVENKHLSVTPNIGVARFPEDGENLEELLKVADMRMYKAKEMKVPYFSLS
# modifications: DOMAIN (24)..(181) example of GGDEF domain
# notes: tDGC diguanylate cyclase domain with I-site arginine 158 replaced by alanine
# B2: R158Q: tDGC diguanylate cyclase domain with I-site arginine 158 replaced by glutamine (protein, listed as Thermotoga maritima)
# chain: MGSSHHHHHHSSGLVPRGSHMKELEYMAYHDPLTGLPNRRYFFELGNRYLDLAKREGKKVFVLFVDLAGFKAINDTYGHLSGDEVLKTVSKRILDRVQRSDVVARYGGDEFTILLYDMKEEYLKSLLERILSTFREPVRVENKHLSVTPNIGVARFPEDGENLEELLKVADMRMYKAKEMKVPYFSLS
# modifications: DOMAIN (24)..(181) example of GGDEF domain
# notes: tDGC diguanylate cyclase domain with I-site arginine 158 replaced by glutamine
# What was measured:
# [1] = system: human colon carcinoma cells; conditions: basal and growth factor-induced; cited from earlier work
# S. aureus = conditions: murine mastitis infection; cited from earlier work
# Staphylococcus aureus = conditions: exogenous c-di-GMP; incl. methicillin-resistant strains; cited from earlier work
# [2] = Diguanylate cyclase (DGC) activity assay and steady-state kinetic measurement (HPLC, GTP to c-di-GMP); assay type: biochemical, Thermotoga maritima
# Description: Enzyme assays were conducted to determine the optimal salt concentration of the DGC reaction, with the buffer that contains 50 mM Tris-HCl (pH 8.0), 20 mM MgCl2, 100 μM GTP, 10 μM Enzyme, and 0-500 mM NaCl. Enzyme assays were conducted to determine the optimal pH concentration of the DGC reaction, with the buffer that contains 50 mM Tris-HCl (pH 7.0-9.0), 250 mM NaCl, 20 mM MgCl2, 100 μM GTP, 10 μM Enzyme. Reaction mixtures were incubated in a waterbath at 55° C. for 15 minutes. After heating at 95° C. for 10 min and centrifugation at 14,000 rpm for 5 min to remove protein precipitate, the supernatant was filtered before loading onto the Eclipse XDB-C18 (4.6×150 mm) column for monitoring the turnover from GTP to c-di-GMP using an Agilent LC1200 system (Mobile phase: 20 mM Triethylammonium bicarbonate (pH 7.0, pH adjusted using acetic acid), 9% Methanol, Flow rate: 1 mL/min). For thermostability analysis, the mutant protein was incubated at 45, 55 and 65° C., aliquots of protein solution were taken out at different time points to add into the reaction mixture that contains 50 mM Tris-Cl (pH 7.5), 250 mM NaCl, 20 mM MgCl2 and 100 μM GTP. The reaction was allowed to last for 10 min before being stopped and analyzed for GTP turnover by using HPLC. For product yield and steady state kinetic measurement, the standard reaction mixture include 50 mM Tris-Cl (pH 8), 20 mM MgCl2, 300 mM NaCl, 1 μM Enzyme, 5-800 μM GTP. Reactions were incubated at 55° C. for 1-60 minutes to obtain linear range of progress. For steady kinetics, data was fitted using GraphPad (Prism) to obtain the kinetic parameters.
# [3] = Size-exclusion chromatography, oligomeric state in solution; assay type: physicochemical, Thermotoga maritima; conditions: Superdex 75, 4° C., FIG. 3
# Description: Gel filtration was performed at 4° C. using the AKTA FPLC system equipped with a Superdex 75 HR 16/60 column (Amersham Biosciences). The buffer used for gel filtration is comprised of 50 mM Tris-Cl (pH 8.0), 300 mM NaCl, 5% Glycerol, 1 mM DTT. Fractions containing the recombinant protein were concentrated using Amicon concentrator (Millipore) to a final concentration of ca. 5 mg/ml as measured using Bradford assay. Concentrated proteins were stored in −80° C. degree after flash-freeze using liquid nitrogen. Mutant proteins were expressed, purified and stored following the same procedure. The molecular weight and oligomeric state of the protein was estimated based on the standard curve generated by using the standard proteins that include albumin, ovalbumin, chemotrypsinogen, RNase A. The final yield of the recombinant protein was 12-15 mg per liter culture for the wild type the mutant enzyme.
# [4] = c-di-GMP binding at the I-site of tDGC (absorption spectrum 256 nm peak, HPLC of denatured protein); design: species or system Thermotoga maritima; conditions: purified protein, FIG. 1
# Description: The observation was surprising since the synthesis of c-di-GMP from two molecules of GTP requires the DGC protein to function in its dimeric form.
# However, despite the improved thermostability, we found the overall production yield was low even at high substrate concentration with prolonged incubation.
Molecule,effect on cell proliferation [1],effect on colonization and biofilm formation (S. aureus),effect on in vitro cell-cell interactions and biofilm formation (Staphylococcus aureus),"NaCl concentration at which the enzyme is most efficient ([2]; 0-500 mM NaCl screened, 55° C., FIG. 4)","GTP concentration above which production yield decreased (substrate inhibition) ([2]; FIG. 2, 55° C.)","pH at which the enzyme is most efficient ([2]; pH 7.0-9.0 screened, 55° C., FIG. 4)","kcat of GTP condensation ([2]; steady-state kinetics, 55° C.)",GTP substrate turned over into c-di-GMP ([2]; under the assay conditions),oligomeric form in solution [3],c-di-GMP binding / association with the protein [4]
"Nc1nc2c(ncn2[C@@H]2O[C@@H]3COP(=O)(O)O[C@H]4[C@@H](O)[C@H](n5cnc6c(=O)[nH]c(N)nc65)O[C@@H]4COP(=O)(O)O[C@H]3[C@H]2O)c(=O)[nH]1 [c-di-GMP, Bis-(3′-5′)-cyclic dimeric guanosine monophosphate]",inhibiting basal and growth factor-induced proliferation,inhibit colonization and biofilm formation,reduce in vitro cell-cell interactions and biofilm formation,–,–,–,–,–,–,–
B1,–,–,–,250 to 300 mM,ca. 0.8 mM,7.5,0.0433 s⁻¹,~100%,monomer,c-di-GMP is no longer associated with the protein; also recorded: abolished the c-di-GMP binding capability
B2,–,–,–,–,–,–,–,–,–,abolished the c-di-GMP binding capability

# Reference: patent US8859237B2, “Diguanylate cyclase method of producing the same and its use in the manufacture of cyclic-di-GMP and analogues thereof” (priority 2009, dated 2014)
